Reference: patent US20150246947A1 (BAXALTA, published 2015)
Where two headings read alike, the source gives them in different places. Non-standard residues stand in square brackets, D forms with d. 400Mal‑PEG = 40 kD PEG moiety attached via maleimide; Cys(Me-400MA) = not defined here

T1: human Protein S (human, UniProt P07225 42-676)
T1 construct: Called 'full length Protein S' / 'human full-length Protein S'; It was coated on plates (ELISA), Eu-labeled (LANCE) or immobilized on a chip (Biacore); also called PS; full length Protein S
T1 sequence: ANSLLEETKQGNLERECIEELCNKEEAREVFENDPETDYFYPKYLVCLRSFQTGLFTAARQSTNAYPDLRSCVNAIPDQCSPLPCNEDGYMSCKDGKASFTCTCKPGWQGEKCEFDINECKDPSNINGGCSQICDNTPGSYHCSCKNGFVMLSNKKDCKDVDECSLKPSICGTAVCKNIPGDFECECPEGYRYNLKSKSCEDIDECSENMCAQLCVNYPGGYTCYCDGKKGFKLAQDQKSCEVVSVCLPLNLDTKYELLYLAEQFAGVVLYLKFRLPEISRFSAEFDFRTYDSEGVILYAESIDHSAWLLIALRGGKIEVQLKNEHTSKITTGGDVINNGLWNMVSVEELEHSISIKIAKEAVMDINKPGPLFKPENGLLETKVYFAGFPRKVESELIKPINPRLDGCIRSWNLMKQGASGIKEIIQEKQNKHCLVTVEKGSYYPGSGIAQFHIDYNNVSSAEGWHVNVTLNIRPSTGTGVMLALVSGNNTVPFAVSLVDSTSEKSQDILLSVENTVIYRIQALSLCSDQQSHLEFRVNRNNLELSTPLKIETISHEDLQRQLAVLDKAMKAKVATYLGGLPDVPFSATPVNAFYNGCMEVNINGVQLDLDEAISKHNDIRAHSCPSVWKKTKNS

T2: human Protein S (UniProt P07225 42-676)
T2 chain: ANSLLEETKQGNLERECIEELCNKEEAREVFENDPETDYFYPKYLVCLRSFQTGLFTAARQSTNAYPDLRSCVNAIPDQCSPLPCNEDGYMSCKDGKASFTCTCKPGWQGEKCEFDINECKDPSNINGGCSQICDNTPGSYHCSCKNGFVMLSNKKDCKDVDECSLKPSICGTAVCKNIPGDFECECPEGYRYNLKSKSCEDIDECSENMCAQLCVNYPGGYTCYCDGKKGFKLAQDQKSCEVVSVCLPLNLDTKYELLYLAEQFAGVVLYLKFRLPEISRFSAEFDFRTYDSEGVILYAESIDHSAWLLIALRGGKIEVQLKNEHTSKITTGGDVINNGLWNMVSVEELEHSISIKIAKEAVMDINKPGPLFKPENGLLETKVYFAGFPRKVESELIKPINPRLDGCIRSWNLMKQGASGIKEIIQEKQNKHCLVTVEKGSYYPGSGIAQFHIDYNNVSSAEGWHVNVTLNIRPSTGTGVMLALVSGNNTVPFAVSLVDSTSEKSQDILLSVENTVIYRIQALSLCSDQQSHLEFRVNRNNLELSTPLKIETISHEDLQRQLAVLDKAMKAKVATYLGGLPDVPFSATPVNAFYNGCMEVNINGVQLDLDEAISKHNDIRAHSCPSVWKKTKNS

T3: human GAS6 (human, UniProt Q14393 49-678, limits assumed)
T3 construct: Immobilized on the Biacore chip; also called protein encoded by the Growth Arrest Specific-6 gene; anti-target
T3 sequence (looked up): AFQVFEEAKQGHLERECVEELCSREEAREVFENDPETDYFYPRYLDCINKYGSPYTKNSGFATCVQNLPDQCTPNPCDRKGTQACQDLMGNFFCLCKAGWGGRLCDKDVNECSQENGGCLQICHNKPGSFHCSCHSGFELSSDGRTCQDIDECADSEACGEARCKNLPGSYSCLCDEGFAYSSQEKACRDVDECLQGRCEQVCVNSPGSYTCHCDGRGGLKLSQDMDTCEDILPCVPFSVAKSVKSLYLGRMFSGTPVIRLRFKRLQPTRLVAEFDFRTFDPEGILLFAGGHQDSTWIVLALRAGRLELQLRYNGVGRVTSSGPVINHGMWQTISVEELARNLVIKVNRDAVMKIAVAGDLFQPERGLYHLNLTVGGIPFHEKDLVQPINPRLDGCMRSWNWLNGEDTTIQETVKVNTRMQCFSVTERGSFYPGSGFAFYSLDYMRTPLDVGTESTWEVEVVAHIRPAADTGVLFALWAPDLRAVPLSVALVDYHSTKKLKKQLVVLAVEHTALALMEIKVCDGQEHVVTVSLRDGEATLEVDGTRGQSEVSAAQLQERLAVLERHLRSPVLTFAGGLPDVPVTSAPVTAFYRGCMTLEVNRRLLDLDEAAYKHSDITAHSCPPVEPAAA


How the values were obtained:
human Protein S [1] = target: T1, human Protein S; assay: LANCE TR-FRET; peptide added to preformed C4BP/Protein S complex; competitor C4BP
Description: To investigate the effect of the peptides described herein on PS/C4BP complexes, a LANCE IC50 assay was established using methods similar to those described above. JBS2572 or JBS3216 was added to a preformed C4BP/PS complex. Changes in the complex concentration were followed by recording the TR-FRET signal. For both peptides, a time- and concentration-dependent dissociation of the C4BP/PS complex was observed. […] The time-dependency of the complex reduction was similar for both peptides. After two hours of incubation in the presence of 100 nM JBS2572 or JBS3216, the C4BP/PS complex was reduced to 60% and 50%, respectively. In addition, binding of biotinylated JBS2572 to Protein S was inhibited by C4BP in the LANCE IC50 assay. Pull-down experiments where JBS2697 was coupled to streptavidin sepharose and incubated for one hour at room temperature with (a) Protein S (1.6 pmol) (b) C4BP (8.5 pmol) and (c) Protein S (1.6 pmol)+C4BP (8.5 pmol) supported the results from the modified LANCE IC50 assay. JBS2697 interacted with free Protein S only from experiment (a) with Protein S alone and from experiment (c) with the C4BP-Protein S mixture.

human Protein S [2] = target: T1, human Protein S; assay: Biacore (SPR), Protein S immobilized
Method in brief: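 Kd was derived from kon and koff, which came from fitting surface plasmon resonance sensorgrams to a Langmuir binding model. Measurements used a Biacore 3000 or Biacore T200 with 1000 RU of human full-length Protein S on a […] chip, and peptides were injected at various concentrations in HBS-buffer with 3 mM CaCl₂ and 1% DMSO.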

human Protein S [3] = target: T2, human Protein S; assay: LANCE competition
Method in brief: (§1)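 A homogeneous time-resolved FRET (LANCE) competition format paired europium-labelled Protein S and ULight-labelled streptavidin with a biotinylated tracer peptide, against which unlabelled test peptide was titrated three-fold. With final concentrations of 10 nM Protein S, 100 nM streptavidin and 300 nM tracer in 50 µl, or 2 nM Protein S and 60 nM tracer when a Tecan F500 was used, samples stood 1 hour at room temperature. Emission was read at 665 nm with excitation at 340 nm. Non-linear regression of these signals gave the IC50.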

human Protein S [4] = target: T1, human Protein S; assay: cell-based or functional assay
human Protein S [5] = target: T2, human Protein S; assay: LANCE competition
Method in brief: as §1

human Protein S [6] = target: T1, human Protein S; assay: Biacore and LANCE IC50
human GAS6 = target: T3, human GAS6; assay: method not restated (Biacore in Example 3)
Method in brief: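 Binding to the anti-target human GAS6 was tested by surface plasmon resonance (Biacore), with 1000 RU GAS6 immobilized on a […] chip. Peptides were injected at various concentrations in HBS-buffer with 3 mM CaCl₂ and 1% DMSO, and the chip was regenerated with 4 M MgCl₂. Kinetic fitting of the GAS6 signals was error prone, so sensorgrams were reviewed visually to estimate anti-target binding.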

human Protein S [7] = target: T2, human Protein S; assay: LANCE competition
Method in brief: as §1

Row | Binder | Kd (human Protein S [2]) | koff (human Protein S [2]) | kon (human Protein S [2]) | IC50 (human Protein S [3]) | binding result (human Protein S [6]) | binding result (human GAS6) | CAT EC50, plasmas from three individuals with severe hemophilia A (human Protein S [4]) | also measured
1 | Ac-EYYVSAGWYDYNTDTYYEFE-NH2 [JBS3216] | 0.2 nM | 0.000233 s⁻¹ | 1.14e+06 M⁻¹ s⁻¹ | 0.7 nM | – | – | – | IC50 (human Protein S [1]): 0.3 nM; CAT EC50, human hemophilia A patient plasma (human Protein S [4]): 85 nM
2 | Ac-YGIVSAGWYDYNTDTYYEFY-NH2 [JBS3221] | – | – | – | – | binds | – | – | IC50 (human Protein S [5]): 0.6 nM
3 | Ac-EYYVSAGWYDYNNDIYYEFE-NH2 [JBS3218] | – | – | – | 0.9 nM | binds | – | – | –
4 | Ac-TGLVSAGWYDYNFDHYREFTC-NH2 (not fully specified (residue 21); also: tetramer: four peptides on a 40 kD four-arm PEG core) [JBS3179] | 0.4 nM | 0.000179 s⁻¹ | 410000 M⁻¹ s⁻¹ | 8 nM | – | no binding (tested: 1 µM) | < 100 nM | CAT EC50 (human Protein S [4]): 6 nM
5 | Ac-EVIVSAGWYDYNNDIYYEFW-NH2 [JBS3274] | – | – | – | 1 nM | binds | – | – | –

Now from value to binder, other results behind:

Row | Kd (human Protein S [2]) | koff (human Protein S [2]) | kon (human Protein S [2]) | IC50 (human Protein S [3]) | binding result (human Protein S [6]) | binding result (human GAS6) | CAT EC50, plasmas from three individuals with severe hemophilia A (human Protein S [4]) | Binder | also measured
6 | – | – | – | 2.2 nM | binds | – | – | Ac-DVHVSAGWYDYNKDIYYEFT-NH2 [JBS3296] | –
7 | 3.6 nM | 0.000278 s⁻¹ | 78000 M⁻¹ s⁻¹ | – | – | no binding (tested: 1 µM) | < 100 nM | Ac-EYIVTAGWYDYNKDIYYEFK[Cys(Me-400MA)]-NH2 (reading uncertain, JBS3206 monomer comprising a 40 kD PEG moiety) [JBS3322] | IC50 (human Protein S [7]): 4.5 nM
8 | 1.4 nM | 0.000213 s⁻¹ | 152000 M⁻¹ s⁻¹ | – | – | no binding (tested: 1 µM) | < 100 nM | Ac-EYYVSAGWYDYNTDTYYEFEC(400Mal‑PEG)-NH2 (JBS3319 conjugated to a 40 kD PEG moiety) [JBS3318] | IC50 (human Protein S [7]): 2.8 nM
